Data from the domain aggregation screens of Martell et al. (2025).

Assay: soluble fraction after stress (log2 fold change); higher = more stays soluble; pooled small domains, quantitative proteomics
Settings: stress: pH 4
Method in brief: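 After pH 4 stress, pooled custom libraries of small protein domains were quantified with high-throughput quantitative proteomics. Aggregation propensity is taken from the fold change in each domain's soluble amount following the acid stress. The scale is log2, where higher values mean more stayed soluble.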

| Sequence | soluble fraction (log2) |
| --- | --- |
| HMTLSHAINRLRLNANMSQEQFAGLFHVSQQSVQKWESGDSVPELSKLIAIAKHFGISLDALILGN | 0.0336 |
| HMTLTEQQITDNYKELRKIINDTFSGLRLDKLNHMYDDLEDRMVVAPASSVEHYHNSKVGGYVEHILHVI | -0.132 |
| HMTLTIEDGYVNAKLKTTVEGLAEDSTIKVDSIEYTNAGKNDILTVFVEDKPYRVEKYKINIAPEDS | -1.12 |
| HMTLVSALDQKTKDSAYYRGTYLAGKISAGKMTKQEAVADIMKNYDGNTAAMKVAAEKAGVSDLLSQTVL | 0.0773 |
| HMTMKQVFIETDANVNQKIMLNEKEAHHLFDVLRTSDKETIRVVTNTSQVFLARVQQKPYIYLFDKMTVE | -1.76 |
| HMTMNYFIIENNQQVGPLTLEQLVARNITSDTLVWKEGMEDWQPAWKVDELHTVLDQIRANAEQ | -1.19 |
| HMTMVVIMNADATQADIEGVISAIEEKGLEAKVMEGAHQKIVGVIGDKTKLAATPLDAMHGVETTVAIS | 0.131 |
| HMTNATVGQIKKLARASILYGNSNLSGNRYTYKANTTVTILQNISSNVDKIRVNVTGRVAYIDNSNYSSST | 0.34 |
| HMTNEQLSKAKSWVQIAVYAAEKLYGAGNGDQKLVYAEEILRKHGIRLDTATLKAMIDAQIKEMEN | 0.131 |
| HMTNEWRKILSNLNGKYQIVMELFYVDGFSTKEIARMLHITEVNVRSRMVRGRKQLEQILTVR | 0.0998 |
| HMTNPPITTEARNLVVEQLKELNALHPEKARELADSYKKEFNVPKVIGHITEARHGEFLALAISKIDES | -0.399 |
| HMTNPPTPADTLFNTVRGVLQSILKSPMKDTEVASALNVSKAQARSWLQRLSDEGLIEKRKNPTAYVL | -0.321 |
| HMTNTYEVIKNDIIFGVLPPLKKLKLLELKKKYITSVSTLREILSRLSGDGFVVSKEQKGFYVSAV | -0.22 |
| HMTNVNSLIGKKAIVIQDIDNLKSTGQVKIGGEIWSAQSESNDIISKDTEVEIVKIDGVKLIVRLVPV | 0.225 |
| HMTNYNTEKIIPEEQAGKRLDVVLANIFPEFSRSRLKNWIIDGFILVDGKVLRPRDFVTGGELVSIDVIV | -0.356 |
| HMTPADEAGNDLDIGQTVKILRRVSEGQYEVSYRGTTWQARALNAQAAVEPSFAVIGGKEGNILLVHL | -0.115 |
| HMTPDVAEFRERLRQILPGEQIEVRTANDGIVLSGTVSSIARLDAALQLAERYAPSRVSNLMSVG | 0.399 |
| HMTPEPVREALTFQEGRVFALAAKNMTNAEIAQSLSLKLKTVENYMSIIYQKLALKNRYELLVYARKSGV | -0.117 |
| HMTPESSLHSGLGKILHDALTAKIQLTNFEAKFLSDMQSKYDLNGSFSWLSSKQQTTLEKILAKYGR | 0.0478 |
| HMTPFLVRVDISDLNIRTGAGTNYSRTGQYTGKGIFTILEVKSGQGSDAGWGRLKSGAGWISLDYTTR | 0.275 |
| HMTPIELIEKTIELIENERKVQKLQQKELALKADIPFPTYKDFIYKKRASLENILKLFIALRLF | -0.88 |
| HMTPKVAVPSFVGWKFEDVERQLGTMGLIRGKVDNHPSEEYSEGRVIWQSVLGEVEKGKVIDFWVSTGPE | -0.776 |
| HMTPNATWQDDAQSLLRDLIQHQPVLIQISAAKRLRDQAEQISRITGGDTVTRDHVEAAGHALGMGVT | -0.39 |
| HMTPPLSKIRNMTPDQQRSSVIEARKKGYNLLQLEGLAKAQGATPADLLVLRNAWAQSEFDQKR | 0.331 |
| HMTPQVALNDTETAIYEKMKQEKQMLLGELRAQFDISNKLWDTSLKTLTKNQLLAVSKEDDLLFVKL | -0.437 |

| Sequence | soluble fraction (log2) |
| --- | --- |
| HMTPQVTVPDVTGQSFASAKQVLESLGLTVKQQGSTGENDKVIGQNPTSGNADKGATITLTTQDS | -0.154 |
| HMTPSTVQVHVAGAVKNPGVYVLLENARNIDAITAAGGATSEADLERINLSEFIRDGQRVYVPYKGDPI | 0.0384 |
| HMTPTITNALEEAEKAVSEVQEGKKEIELTPQGAYIRHLQHAIADRYGISSTSTGRDPKRKVIIY | -0.437 |
| HMTPTNILIVEDEKEIRRFVRTALESEGLRVFESETLQRGLIEAGTRKPDLIILDLGLPDGDGLSYIRDLR | -0.662 |
| HMTPTRQATVSVAALNVREQPSLQGRRLGKLTQGTTLTVVGPPGEWLKIEYKGETGFVYASYTSLG | -0.0723 |
| HMTPTVEAAKEEVLRVLASAAPRGLTRTELEAEVSFRRTKLRDTLVELERIGRIDSVGRRGNATTYRLIG | -0.0736 |
| HMTPVEVNARGVHVDFSKGGILLEDVVRHLILEALRASEWKRGPAAQLLGISKETLRYRMEKYRLYPP | -0.706 |
| HMTPYEVLVYESLKQKILSGGYAAGEKIPEQSVSEELGVSRSPLRSAIRRLASEGLIEYYPYRGAFVKA | -0.751 |
| HMTQEAMRSLRKSLQNLSSRQQVIFMLRHYEGLALKEIAEHLGLETGTVKAHLHRAVTQLRKDLVE | -0.112 |
| HMTQHDIVPLMLKMVDVLTQFVELDIPFLQQERQTRLAALNAMMGRADVSLAEKYRRIMEAYQVETEYG | -0.254 |
| HMTQLEVDLFERLITISGVGPRLALAVLSGLEPPDLLRAIQDSDIVRLQGIPGVGKKTAERISLELKDKLS | -0.854 |
| HMTQQYVEWKVYNVTTIKNKYGFRVKLIFQDGSDATQQKGGFTSKKAAEQARTEVIGQLYSNTYVVY | ≥ 0.43 |
| HMTQSGLTQWEFNMLRQALIEMLGEKPGSVFELARLLPLEQEKNVQALRFLLDHDDQFHLKDEYISFVKRT | -1.82 |
| HMTQTAVFSKGEQEYYFPLSKVLFFETDGNTINVHTADDIYETRYRLYELEEMLPGSFMRISKSAVVNTNR | -0.161 |
| HMTRAEVQALLEKQAKDFEVEVVHRGWKKTVQTPEFAGWYSQQPAEIKALAESDDPAVAIRMLDLFSGTK | -0.644 |
| HMTRETTQAWWEARQTLPSGEQRSAASLSQEASHVRRFYRWAMQQGLTDRNPADWLPDVRQK | -0.062 |
| HMTRIHEEVVNQVHDLVKEGRFKAGDQLPSERELAEIFKVSRTSVREALRALETQGLIISRTGMGNFIAD | -0.472 |
| HMTRILTEDDIVNFLIRQPDTAYIIAKSFNENERKVKELLDLLIKKNKVREEIVNGVVSYAVN | -0.208 |
| HMTRKQTIYEFLRRMKSQHGLDAVYSTEEIANAVGVSRANVSSDLNRLFEEQLVEKLPGWPVKYRA | 0.128 |
| HMTRNEFMTALRKRLSHLPAEEQDAALKYYEEYFDEAESEEEAARQLGSPDAIADRILADYGAG | -0.261 |
| HMTRPLVILEDVKFPSYNEIVSLTLPDGTRRGGQVLEVSGNKAIVQVFEGTSGIDVKDTHIELTKSS | 0.0449 |
| HMTRQEFIRKLQEALNGKLDAATIQDHLKFYDDYIIEEMRKGKSEQEVLELLGDPWAIAKTIVDAS | -0.44 |
| HMTRQKEAILALLTDSRGEALSASELLARLTRSGSSIGRTTVYRLLSQLVDDGVVRAWRDASRGITLYELS | -0.44 |
| HMTRQPSAKEHAVLTAVKEGLRRDGRAPTVRALADMTGAASTSTVQRRISALIDLGLLRRTDGTLEVVE | 0.202 |
| HMTRRVIRAPAAGIMRSNVKLGDLVKEGDVIAWIGEHEIKAPLTGMVRGLLNDGLAVVGGFKIGDI | 0.157 |

| Sequence | soluble fraction (log2) |
| --- | --- |
| HMTSEPFYNPRRPQPYWTSETDRHTTYADAVRALAREFSETPEWVESNMGETNDLQEIRRNLSRVKSG | -0.108 |
| HMTSESWAEKSRSLAAAGLIVMGRDAQLKIEGLTNLDPLIEAATASSTRLLTGQTIDELLTIVP | -0.627 |
| HMTSEVLTNATIVKMVKAKLSDDIIIDEINNARVNFDVSPEGIKSLTAQNVTEPVIETMKKAVAAQESI | 0.428 |
| HMTSFDVMLKSAGANKLAVVKLVKELTGLGLKEAKDIVDAAPSKVKEGVSKEEAEELQKQLTGAGAEVEL | 0.309 |
| HMTSHYTVLGVKETDTIEMIRTHYRKLILQFHPDKNQHLTEEERKKLEVKVLQIREAYEKIKKEK | -0.816 |
| HMTSIISLAKARSIALQKVPGATSKNIHLSLDDEDDKQVYEGEIKYKQMEYVFEIDAKTGTFLKWTSERD | 0.185 |
| HMTSKTLSAVEGEGLRLDKFLSNQLPELSRTKIQKMINDGLVFVNNTEAKASLILDGSEFIAYTVPD | -0.0789 |
| HMTSLAEQAYRHIRDKLSNGAFVPGEQLVNRVLATEIGVSVIPVREAINRLATEGLVKHVPGSGAFVRQ | 0.197 |
| HMTSLYDILGIAKTADSQTIKTAFKKKALLYHPDKNNGNLKKEEIFKKISTAYQILSDPKSRANYDLSIA | 0.22 |
| HMTSMNNTEELIDMANKIIDNNPNMVLKYKEGRNVLDFFIGQVMKETKGRANPSATSKIFKDLLEK | 0.171 |
| HMTSNKTVPYSELKGLISTGKIEYVGIGNTQIRAVSKSGAGIVTYTARRVIPDDTLIPELEKNGIAYGGI | 0.112 |
| HMTSNSLNLKDEISAFLTKNAGISYSAERIAHALNMDNADQFTPIIQTLAQLEREKKVRVTDKGEFEAVIK | 0.229 |
| HMTSSKISFIDPVNGGKVSVSLENSTLEKLQNRFGVNSVVRNEAGDVELKDKAQEFVAGWFADIAYTRG | -0.89 |
| HMTTAGTAIVQTGNSGKLNLREQAYANAGILGRYSNGTAVTVLQKGAAWSYVEVKGQKGYMMSKFLKFTS | -0.341 |
| HMTTEIVRMKKDVKIGQEITAKDIEVVEVGAYNLPDEVIRSSEEVVGKYVSSELLKGEYVLPSKISDTP | -0.53 |
| HMTTEPYILTRMPDGSIKAEPNLNYKGPEQKPGSNIQVKGADGRIYLVPIDGQGKPGKPQLVD | 0.127 |
| HMTTGLETYPGKIAVVSDDFIDGEGRVQLDGALWRAKTKDHQQLKQGDHVTIVNVKGLTLTVMPDD | -0.0405 |
| HMTTGREGLIGAVGTVRQAIAPEGYVFVEGELWRAKSPAGPLEPGTTVRVIAIDGLTLTVMPAE | -0.564 |
| HMTTGTVKWFNDAKGFGFITPDDRSVDVFVHYSNIVGQSGRRTLMEGERVEYEAIEGPKGPQATDVARA | -1.06 |
| HMTTIFDNINGELRRRHLTQQDLAKTIEIDRRTWSKWQDKNDMPASVLLQIAKWLNVTLDYLTRD | 0.0559 |
| HMTTIKLTQEDVEKIKSLPKRTFLIGNLQQTGLYDEKTRRFYYLDANGEWNGRLAIINTPPPPPPPP | -0.0951 |
| HMTTKYMVLVNWVKEKVRTNELKTGEKLYSEHEFSRMFHMSRQTVRHGISILERENIVERRQGSGTFIKDA | -0.223 |
| HMTTKYVAVHESKDGYWTIASKPSSKEDAEAMLGGTPKNEVGKVVTLEEAKAHKKTLGEEYLYE | ≥ 0.43 |
| HMTTMTTGQRIAAKRKEQGLSQENLGEQLGVSRQAIYKWESDASLPDIDKLIALSRLFGVSTDYLLLE | -1.68 |
| HMTTQIPEEVQKRVNQFYEALDEEDYGEAKQILEELEKATAPDHPTLIQMRTRYEFDTMELR | -1.1 |
